# From patent US20250304927A1, “PRO-PEPTIDE VARIANTS FOR MODULATING ACTIVITY OF TRANSGLUTAMINASES” (CURIE CO. INC., priority 2022, published 2025)
# Changes are numbered by the printed parent chain. Names and notes keep the numbering of the source.
# B1: pro-peptide variant D21T, D22Q (Method B) (peptide)
# peptide: MDNGAGEETKSYAETYRLTATQVANINALNESAPAASSAGPSFRAP
# B2: pro-peptide variant D2I, D22Q (Method B) (peptide)
# peptide: B1 peptide with D2I, T21D
# B3: pro-peptide variant D2I, E7S, D21I (Method B) (peptide)
# peptide: B1 peptide with D2I, E7S, T21I, Q22D
# B4: pro-peptide variant E7S, L18V, D21R (Method B) (peptide)
# peptide: B1 peptide with E7S, L18V, T21R, Q22D
# B5: pro-peptide variant L18V, D21T, D22Q (Method B) (peptide)
# peptide: B1 peptide with L18V
# B6: pro-peptide variant D2I, E7S, L18V, D21R (Method B) (peptide)
# peptide: B1 peptide with D2I, E7S, L18V, T21R, Q22D
# B7: pro-peptide variant L18V (Method B) (peptide)
# peptide: B1 peptide with L18V, T21D, Q22D
# B8: pro-peptide variant D2S, D22Q (Method B) (peptide)
# peptide: B1 peptide with D2S, T21D
# B9: pro-peptide variant D2S, D21T, D22Q (Method B) (peptide)
# peptide: B1 peptide with D2S
# B10: pro-peptide variant D2S, E7S, D21T, D22Q (Method B) (peptide)
# peptide: B1 peptide with D2S, E7S
# B11: pro-peptide variant E7S, D22Q (Method B) (peptide)
# peptide: B1 peptide with E7S, T21D
# B12: pro-peptide variant D2S, L18V, D22Q (Method B) (peptide)
# peptide: B1 peptide with D2S, L18V, T21D
# Target: T1, mature evolved transglutaminase (SEQ ID NO: 5) (Streptomyces mobaraensis, UniProt P81453, G359A/K167H/K227R/K228R/N358M/Q126S/Q150A/Q200L)
# T1 construct: hexa-His tag with two amino acid linker (C); made in house; host or cells: E. coli BL21 (DE3)
# Assay: transglutaminase thermostability: activity after being held at 37-50 °C
# Assay type: biochemical
# Design: key: The symbol, —, represents not determined, neutral, or reduced performance
# Conditions: relative to wild-type pro-peptide; held at 37° C.-50° C. for 30 minutes, diluted 10-fold to 100-fold
# Procedure: The terms “stability” and “thermostability” are used interchangeably to refer to increased residual activity of mature transglutaminase after incubation at elevated temperatures. In some embodiments, a pro-peptide variant increases the stability of a mature transglutaminase compared to the wild type pro-peptide. Measurement of stability is depicted in Example 4.
# It is believed that these pro-peptide variants confer thermal stability to mature transglutaminase.
row,Molecule,Thermostability
1,"D2I, D22Q: combination variant of pro-peptide SEQ ID NO: 2, Method B (MINGAGEETKSYAETYRLTADQVANINALNESAPAASSAGPSFRAP)",—
2,"D2S, D21T, D22Q: combination variant of pro-peptide SEQ ID NO: 2, Method B (MSNGAGEETKSYAETYRLTATQVANINALNESAPAASSAGPSFRAP)",—
3,"E7S, D21T: combination variant of pro-peptide SEQ ID NO: 2, Method B (MDNGAGSETKSYAETYRLTATDVANINALNESAPAASSAGPSFRAP)",—
4,"L18V, D21T, D22Q: combination variant of pro-peptide SEQ ID NO: 2, Method B (MDNGAGEETKSYAETYRVTATQVANINALNESAPAASSAGPSFRAP)",—
5,"D2S, E7S, D22Q: combination variant of pro-peptide SEQ ID NO: 2, Method B (MSNGAGSETKSYAETYRLTADQVANINALNESAPAASSAGPSFRAP)",—
6,"L18V, D21T: combination variant of pro-peptide SEQ ID NO: 2, Method B (MDNGAGEETKSYAETYRVTATDVANINALNESAPAASSAGPSFRAP)",—
7,"E7S, D21T, D22Q: combination variant of pro-peptide SEQ ID NO: 2, Method B (MDNGAGSETKSYAETYRLTATQVANINALNESAPAASSAGPSFRAP)",—
8,"E7S, L18V, D21R: combination variant of pro-peptide SEQ ID NO: 2, Method B (MDNGAGSETKSYAETYRVTARDVANINALNESAPAASSAGPSFRAP)",—
9,"D2I, D21T, D22Q: combination variant of pro-peptide SEQ ID NO: 2, Method B (MINGAGEETKSYAETYRLTATQVANINALNESAPAASSAGPSFRAP)",—
10,"D2S, E7S: combination variant of pro-peptide SEQ ID NO: 2, Method B (MSNGAGSETKSYAETYRLTADDVANINALNESAPAASSAGPSFRAP)",—
11,"D21T, D22Q: combination variant of pro-peptide SEQ ID NO: 2, Method B (MDNGAGEETKSYAETYRLTATQVANINALNESAPAASSAGPSFRAP)",—
12,"D2S, E7S, D21I: combination variant of pro-peptide SEQ ID NO: 2, Method B (MSNGAGSETKSYAETYRLTAIDVANINALNESAPAASSAGPSFRAP)",—
13,"D2S, L18V, D22Q: combination variant of pro-peptide SEQ ID NO: 2, Method B (MSNGAGEETKSYAETYRVTADQVANINALNESAPAASSAGPSFRAP)",—
14,"D2I, E7S, D22Q: combination variant of pro-peptide SEQ ID NO: 2, Method B (MINGAGSETKSYAETYRLTADQVANINALNESAPAASSAGPSFRAP)",—
15,"D2I, E7S, L18V, D21R: combination variant of pro-peptide SEQ ID NO: 2, Method B (MINGAGSETKSYAETYRVTARDVANINALNESAPAASSAGPSFRAP)",—
16,"D2S, E7S, D21T, D22Q: combination variant of pro-peptide SEQ ID NO: 2, Method B (MSNGAGSETKSYAETYRLTATQVANINALNESAPAASSAGPSFRAP)",—
17,"E7S, L18V, D21I: combination variant of pro-peptide SEQ ID NO: 2, Method B (MDNGAGSETKSYAETYRVTAIDVANINALNESAPAASSAGPSFRAP)",—
18,"D2S, D22Q: combination variant of pro-peptide SEQ ID NO: 2, Method B (MSNGAGEETKSYAETYRLTADQVANINALNESAPAASSAGPSFRAP)",—
19,"E7S, D21R: combination variant of pro-peptide SEQ ID NO: 2, Method B (MDNGAGSETKSYAETYRLTARDVANINALNESAPAASSAGPSFRAP)",—
20,"D2I, E7S, D21I: combination variant of pro-peptide SEQ ID NO: 2, Method B (MINGAGSETKSYAETYRLTAIDVANINALNESAPAASSAGPSFRAP)",—
21,D2F: substitution variant of pro-peptide SEQ ID NO: 2 (MFNGAGEETKSYAETYRLTADDVANINALNESAPAASSAGPSFRAP) [Variant D2F],—

# Target: T2, evolved variant of mature Streptomyces mobaraensis transglutaminase, including a two amino acid linker and … (Streptomyces mobaraensis, UniProt P81453 79-407)
# T2 chain: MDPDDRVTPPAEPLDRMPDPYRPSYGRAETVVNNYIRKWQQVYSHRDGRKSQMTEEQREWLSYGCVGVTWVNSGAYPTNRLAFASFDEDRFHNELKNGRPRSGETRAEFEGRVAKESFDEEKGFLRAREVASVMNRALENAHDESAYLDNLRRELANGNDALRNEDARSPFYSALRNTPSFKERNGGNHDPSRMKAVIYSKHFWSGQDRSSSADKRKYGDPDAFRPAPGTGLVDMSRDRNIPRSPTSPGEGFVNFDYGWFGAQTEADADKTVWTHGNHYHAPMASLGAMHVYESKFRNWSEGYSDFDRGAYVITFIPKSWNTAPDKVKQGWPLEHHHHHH
# Assay: cell-based or functional assay
# Conditions: not given
row,Molecule,Inhibition [fold]
1,B1,> 1.2
2,B2,> 1.2
3,B3,> 1.2
4,B4,> 2
5,B5,> 2
6,B6,> 2
7,B7,> 2
8,B8,> 2
9,B9,> 1.2
10,B10,> 2
11,B11,> 1.2
12,B12,> 2
